Results reported in US6579848B1, “Depigmenting activity of agouti signal protein and peptides thereof” (The United States of America as represented by the …, priority 1995, dated 2003).

Key:
tyrosinase = assay: Tyrosine hydroxylase enzyme assay on extracts of treated melan-a cells; assay type: cell-based, murine; conditions: extracts of melan-a cells cultured 5 days; 10 nM
Procedure: Assays for melanogenic catalytic activities as described below were carried out at pH 6.8, 37° C. for 60 minutes. (1) Tyrosine hydroxylase activity was measured using the [^3H]tyrosine assay (Hearing and Ekel, 1976; Hearing, 1987). This method specifically measures the tritiated water produced during the hydroxylation of tyrosine to DOPA. (2) DOPA oxidase activity was measured using incorporation of [3-^14C]DOPA into acid-insoluble melanin as detailed previously (Aroca et al., 1993). (3) DOPAchrome tautomerase activity was measured by HPLC as the disappearance of DOPAchrome substrate and the production of DHICA rather than DHI; data are converted to pmol products by comparison with known standards. The HPLC assay was detailed previously (Palumbo et al., 1987; Tsukamoto et al., 1992). (4) DHI oxidase and DHICA oxidase activities were measured by HPLC as the disappearance of these substrates from reaction mixtures compared to controls for spontaneous auto-oxidation; data are converted to pmol by comparison with known standard (Aroca et al., 1993). (5) Melanin production was measured using incorporation of [^14C]tyrosine into acid-insoluble melanin, also as detailed previously (Hearing and Ekel, 1976; Hearing, 1987); pmol melanin produced are calculated from the radioactive product. […]

TRP2 = assay: Northern blotting of TRP2 RNA in melan-a cells; assay type: cell-based, murine
Procedure: These techniques were performed as described previously (Aroca et al., 1993). Briefly, 2.0 μg of mRNA, isolated using a total RNA isolation kit and mRNA purification kit (Promega, Madison, Wis.), were electrophoresed and then blotted to Sure-Blot nylon membranes (Oncor, Gaithersburg, Md.), hybridized with ^32P-labeled probes, dehybridized and rehybridized with other probes again as necessary. TYRS-J, the probe specific for tyrosinase, was kindly provided by Drs. H. Yamamoto and T. Takeuchi, Sendai, Japan and is described in Yamamoto et al Japan J. Genetics Vol 62:271-274, 1987. pMT4, specific for TRP1, was provided by Dr. S. Shibahara, Sendai, Japan and is described in Shibahara, S. et al Nucleic Acid Res. Vol 14:2413-2427, 1986. TRP2a, specific for TRP2 was provided by Dr. I. Jackson, Edinburgh, Scotland and is described in Jackson, I et al. EMBO Vol 11:527-535, 1992. gp100, specific for silver, was provided by Dr. Y. Kawakami, Bethesda, Md. and is described in Kawakami et al PNAS, Vol. 91, 6458-6462, 1994.
Recombinant agouti protein was purified from baculovirus system by Dr. Michael Ollmann in Dr. Gregory Barsh's laboratory by methods known in the art. 2×10^6 cells were seeded per 15 cm diameter dish. The medium was changed everyday, and fresh agouti protein and/or αMSH added everyday usually at 10 nM. To examine transcriptional regulation, total RNA was isolated and Northern blotting performed by methods described in Example 1. The A26 probe to the MSH-R was provided by Dr. R. Cone and is described in Mountjoy et al. Science 257:1248-1251, 1992. At the translational level, metabolic labeling was used in conjunction with immunoprecipitation as described in Example 1. Western blotting and enzyme assay was used to examine function.
The effects of agouti protein on expression of TRP1, TRP2, and the MSH receptor were examined.
Total RNA was extracted from cells using an RNeasy total RNA isolation kit (QIAGEN, Catsworth, Calif.), following the manufacturer's instructions. […]

α-melanocyte stimulating hormone [MSH, reference compound]
tyrosine hydroxylase (tyrosinase): 8.7 ± 2.8 pmol/μg protein/hr
increase in TRP2 RNA level (TRP2; 10 nM, 5 days): 50%

B1: agouti protein: Recombinant murine agouti signal protein purified from a baculovirus expression system (protein)
chain: MDVTRLLLATLVSFLCFFTVHSHLALEETLGDDRSLRSDSSMNSLDFSSVSIVALNKKSKKISRKEAEKRKRSSKKKASMKKVARPPPPSPCVATRDSCKPPAPACCDPCASCQCRFFGSACTCRVLNPNC
tyrosine hydroxylase (tyrosinase): −1.2 ± 0.2 pmol/μg protein/hr
RNA level of TRP2 (TRP2; 10 nM, 5 days): nearly a fivefold decrease
level of TRP2 RNA (TRP2; 24 hours, different concentrations): reduced, but not to the same extent as tyrosinase RNA
